Measurements as given in publication PMC9352680, “A comprehensive thermodynamic model for RNA binding by the Saccharomyces cerevisiae Pumilio protein PUF4”.

target: T1, PUF4 RNA-binding domain (Saccharomyces cerevisiae, UniProt P25339 537-888); assay: Mg; RNA-MaP; 20 mM Na-HEPES pH 7.4, 30 mM KOAc, 0.75 mM MgCl2, 0.1% Tween-20, 5% glycerol, 0.1 mg/mL BSA, 2 mM DTT; 25 C; 0.0125-409.6 nM protein; conditions: tags: N-His6-TEV cleaved; C-SNAP kept, Cy3B-labelled; label: tethered on chip by stalled RNA polymerase
T1 sequence: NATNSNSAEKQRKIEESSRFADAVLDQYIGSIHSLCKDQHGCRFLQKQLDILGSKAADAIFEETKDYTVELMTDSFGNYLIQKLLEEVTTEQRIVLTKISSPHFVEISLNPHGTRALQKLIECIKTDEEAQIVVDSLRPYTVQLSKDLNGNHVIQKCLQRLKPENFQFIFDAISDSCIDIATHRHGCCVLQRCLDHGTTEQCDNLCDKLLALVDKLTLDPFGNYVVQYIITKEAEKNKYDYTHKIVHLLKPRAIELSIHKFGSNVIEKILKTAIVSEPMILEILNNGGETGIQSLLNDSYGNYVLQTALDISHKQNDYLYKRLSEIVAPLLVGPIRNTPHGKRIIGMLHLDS

| Binder | Kd [nM] |
| --- | --- |
| UCUCUUCAUAUAUAUAAUUCUCUU (ssRNA) [Id_ii_S1_P3E.3_K3.2_C3.2_[T-1A]_H3.2_A3.1_F3.1_T3.2_[T9A]_[A10T]] | 669 |
| UCUCUUGCACACUAUAACUCUCUU (ssRNA) [Id_ii_S1_P3E.4_K3.3_C3.2_[C-2G]_[T-1C]_H3.3_A3.1_F3.1_T3.2_[T9A]_[A10C]] | 110 |
| UCUCUUUUUACAUUAUCUCUU (ssRNA) [Ib_S1_P4E.1_K4.1_C4.1_H4.1_[G2T]_A4.1_[T5C]_F4.1_T4.1] | 914 |
| UCUCUUCUUAUAUAUACGUCUCUU (ssRNA) [Id_ii_S1_P3E.3_K3.2_C3.2_H3.2_A3.1_F3.1_T3.2_[T9C]_[A10G]] | 1260 |
| UCUCUUCCUAUAUAUAACUCUCUU (ssRNA) [Id_ii_S1_P3E.3_K3.2_C3.2_[T-1C]_H3.2_A3.1_F3.1_T3.2_[T9A]_[A10C]] | 1070 |
| UCUCUUCGUAUAUAUAAAUCUCUU (ssRNA) [Id_ii_S1_P3E.3_K3.2_C3.2_[T-1G]_H3.2_A3.1_F3.1_T3.2_[T9A]] | 653 |
| UCUCUUCUUAUAUAUAUGUCUCUU (ssRNA) [Id_ii_S1_P3E.3_K3.2_C3.2_H3.2_A3.1_F3.1_T3.2_[A10G]] | 499 |
| UCUCUUCCUAUAUAUACAUCUCUU (ssRNA) [Id_ii_S1_P3E.3_K3.2_C3.2_[T-1C]_H3.2_A3.1_F3.1_T3.2_[T9C]] | 1260 |
| UCUCUUUUUAUCUUAUCUCUU (ssRNA) [Ib_S1_P4E.1_K4.1_C4.1_H4.1_[G2T]_A4.1_[A6C]_F4.1_T4.1] | > 2300 |
| UCUCUUCUUAUAUAUAGUUCUCUU (ssRNA) [Id_ii_S1_P3E.3_K3.2_C3.2_H3.2_A3.1_F3.1_T3.2_[T9G]_[A10T]] | 109 |
| UCUCUUCGUAUAUAUAAUUCUCUU (ssRNA) [Id_ii_S1_P3E.3_K3.2_C3.2_[T-1G]_H3.2_A3.1_F3.1_T3.2_[T9A]_[A10T]] | 675 |
| UCUCUUGCACACUAUAUUUCUCUU (ssRNA) [Id_ii_S1_P3E.4_K3.3_C3.2_[C-2G]_[T-1C]_H3.3_A3.1_F3.1_T3.2_[A10T]] | 94.8 |
| UCUCUUGUACACUAUAACUCUCUU (ssRNA) [Id_ii_S1_P3E.4_K3.3_C3.2_[C-2G]_H3.3_A3.1_F3.1_T3.2_[T9A]_[A10C]] | 1.63 |
| UCUCUUCAUAUAUAUACGUCUCUU (ssRNA) [Id_ii_S1_P3E.3_K3.2_C3.2_[T-1A]_H3.2_A3.1_F3.1_T3.2_[T9C]_[A10G]] | 1120 |
| UCUCUUCGUAUAUAUAACUCUCUU (ssRNA) [Id_ii_S1_P3E.3_K3.2_C3.2_[T-1G]_H3.2_A3.1_F3.1_T3.2_[T9A]_[A10C]] | 629 |
| UCUCUUUAUACAUUAUCUCUU (ssRNA) [Ib_S1_P4E.1_K4.1_C4.1_H4.1_[G2A]_A4.1_[T5C]_F4.1_T4.1] | 23.8 |
| UCUCUUCGUAUAUAUACCUCUCUU (ssRNA) [Id_ii_S1_P3E.3_K3.2_C3.2_[T-1G]_H3.2_A3.1_F3.1_T3.2_[T9C]_[A10C]] | 1710 |
| UCUCUUCGUAUAUAUAUAUCUCUU (ssRNA) [Id_ii_S1_P3E.3_K3.2_C3.2_[T-1G]_H3.2_A3.1_F3.1_T3.2] | 488 |
| UCUCUUCCUAUAUAUACGUCUCUU (ssRNA) [Id_ii_S1_P3E.3_K3.2_C3.2_[T-1C]_H3.2_A3.1_F3.1_T3.2_[T9C]_[A10G]] | 1950 |
| UCUCUUGUACACUAUACCUCUCUU (ssRNA) [Id_ii_S1_P3E.4_K3.3_C3.2_[C-2G]_H3.3_A3.1_F3.1_T3.2_[T9C]_[A10C]] | 0.984 |
| UCUCUUCCUAUAUAUAUUUCUCUU (ssRNA) [Id_ii_S1_P3E.3_K3.2_C3.2_[T-1C]_H3.2_A3.1_F3.1_T3.2_[A10T]] | 673 |
| UCUCUUCAUAUAUAUAUCUCUCUU (ssRNA) [Id_ii_S1_P3E.3_K3.2_C3.2_[T-1A]_H3.2_A3.1_F3.1_T3.2_[A10C]] | 717 |
| UCUCUUCCUAUAUAUAAGUCUCUU (ssRNA) [Id_ii_S1_P3E.3_K3.2_C3.2_[T-1C]_H3.2_A3.1_F3.1_T3.2_[T9A]_[A10G]] | 1540 |
| UCUCUUCAUAUAUAUAGGUCUCUU (ssRNA) [Id_ii_S1_P3E.3_K3.2_C3.2_[T-1A]_H3.2_A3.1_F3.1_T3.2_[T9G]_[A10G]] | 804 |
| UCUCUUUAUAAAUUAUCUCUU (ssRNA) [Ib_S1_P4E.1_K4.1_C4.1_H4.1_[G2A]_A4.1_[T5A]_F4.1_T4.1] | 128 |

| Binder | Kd [nM] |
| --- | --- |
| UCUCUUGCACACUAUACCUCUCUU (ssRNA) [Id_ii_S1_P3E.4_K3.3_C3.2_[C-2G]_[T-1C]_H3.3_A3.1_F3.1_T3.2_[T9C]_[A10C]] | 278 |
| UCUCUUCCUAUAUAUACCUCUCUU (ssRNA) [Id_ii_S1_P3E.3_K3.2_C3.2_[T-1C]_H3.2_A3.1_F3.1_T3.2_[T9C]_[A10C]] | 969 |
| UCUCUUGCACACUAUACUUCUCUU (ssRNA) [Id_ii_S1_P3E.4_K3.3_C3.2_[C-2G]_[T-1C]_H3.3_A3.1_F3.1_T3.2_[T9C]_[A10T]] | 122 |
| UCUCUUCGUAUAUAUAGCUCUCUU (ssRNA) [Id_ii_S1_P3E.3_K3.2_C3.2_[T-1G]_H3.2_A3.1_F3.1_T3.2_[T9G]_[A10C]] | 419 |
| UCUCUUCAUAUAUAUACUUCUCUU (ssRNA) [Id_ii_S1_P3E.3_K3.2_C3.2_[T-1A]_H3.2_A3.1_F3.1_T3.2_[T9C]_[A10T]] | 618 |
| UCUCUUGCACACUAUACGUCUCUU (ssRNA) [Id_ii_S1_P3E.4_K3.3_C3.2_[C-2G]_[T-1C]_H3.3_A3.1_F3.1_T3.2_[T9C]_[A10G]] | 671 |
| UCUCUUCCUAUAUAUAGCUCUCUU (ssRNA) [Id_ii_S1_P3E.3_K3.2_C3.2_[T-1C]_H3.2_A3.1_F3.1_T3.2_[T9G]_[A10C]] | 980 |
| UCUCUUCCUAUAUAUAUAUCUCUU (ssRNA) [Id_ii_S1_P3E.3_K3.2_C3.2_[T-1C]_H3.2_A3.1_F3.1_T3.2] | 578 |
| UCUCUUCAUAUAUAUAUAUCUCUU (ssRNA) [Id_ii_S1_P3E.3_K3.2_C3.2_[T-1A]_H3.2_A3.1_F3.1_T3.2] | 624 |
| UCUCUUGCACACUAUACAUCUCUU (ssRNA) [Id_ii_S1_P3E.4_K3.3_C3.2_[C-2G]_[T-1C]_H3.3_A3.1_F3.1_T3.2_[T9C]] | 275 |
| UCUCUUCAUAUAUAUAUUUCUCUU (ssRNA) [Id_ii_S1_P3E.3_K3.2_C3.2_[T-1A]_H3.2_A3.1_F3.1_T3.2_[A10T]] | 515 |
| UCUCUUCUUAUAUAUAAAUCUCUU (ssRNA) [Id_ii_S1_P3E.3_K3.2_C3.2_H3.2_A3.1_F3.1_T3.2_[T9A]] | 1180 |
| UCUCUUCAUAUAUAUACAUCUCUU (ssRNA) [Id_ii_S1_P3E.3_K3.2_C3.2_[T-1A]_H3.2_A3.1_F3.1_T3.2_[T9C]] | 1300 |
| UCUCUUCCUAUAUAUAUGUCUCUU (ssRNA) [Id_ii_S1_P3E.3_K3.2_C3.2_[T-1C]_H3.2_A3.1_F3.1_T3.2_[A10G]] | 770 |
| UCUCUUCUUAUAUAUACCUCUCUU (ssRNA) [Id_ii_S1_P3E.3_K3.2_C3.2_H3.2_A3.1_F3.1_T3.2_[T9C]_[A10C]] | 1300 |
| UCUCUUCUUAUAUAUAUCUCUCUU (ssRNA) [Id_ii_S1_P3E.3_K3.2_C3.2_H3.2_A3.1_F3.1_T3.2_[A10C]] | 600 |
| UCUCUUCCUAUAUAUAUCUCUCUU (ssRNA) [Id_ii_S1_P3E.3_K3.2_C3.2_[T-1C]_H3.2_A3.1_F3.1_T3.2_[A10C]] | 1000 |
| UCUCUUCUUAUAUAUACAUCUCUU (ssRNA) [Id_ii_S1_P3E.3_K3.2_C3.2_H3.2_A3.1_F3.1_T3.2_[T9C]] | 907 |
| UCUCUUCAUAUAUAUAGCUCUCUU (ssRNA) [Id_ii_S1_P3E.3_K3.2_C3.2_[T-1A]_H3.2_A3.1_F3.1_T3.2_[T9G]_[A10C]] | 512 |
| UCUCUUCAUAUAUAUAGUUCUCUU (ssRNA) [Id_ii_S1_P3E.3_K3.2_C3.2_[T-1A]_H3.2_A3.1_F3.1_T3.2_[T9G]_[A10T]] | 413 |
| UCUCUUCUUAUAUAUACUUCUCUU (ssRNA) [Id_ii_S1_P3E.3_K3.2_C3.2_H3.2_A3.1_F3.1_T3.2_[T9C]_[A10T]] | 634 |
| UCUCUUCUUAUAUAUAGCUCUCUU (ssRNA) [Id_ii_S1_P3E.3_K3.2_C3.2_H3.2_A3.1_F3.1_T3.2_[T9G]_[A10C]] | 77.5 |
| UCUCUUCCUAUAUAUAGUUCUCUU (ssRNA) [Id_ii_S1_P3E.3_K3.2_C3.2_[T-1C]_H3.2_A3.1_F3.1_T3.2_[T9G]_[A10T]] | 787 |
| UCUCUUCUUAUAUAUAUAUCUCUU (ssRNA) [Id_ii_S1_P3E.3_K3.2_C3.2_H3.2_A3.1_F3.1_T3.2] | 394 |
